{"source": "the domain aggregation screens of Martell et al. (2025)"}
{"assay": "soluble fraction after stress (log2 fold change); higher = more stays soluble; pooled small domains, quantitative proteomics", "conditions": "stress: 50 degC", "summary_of_the_method": "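Each library was heated to 50°C as a stress step. The libraries, made up of small protein domains, were pooled and analysed at high throughput by quantitative proteomics. The reported value is the base-two logarithm of the fold change in each protein's soluble amount after stress, taken as a measure of aggregation propensity. The higher the value, the more protein stays in solution.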"}
{"sequence": "HMSYTDIILKMSNVNFLTKVNFTNSEKNKNIKNGNFLIKKGKNRITAAFDYKDNELVISKSNLRNTFL", "soluble fraction (log2)": -0.381}
{"sequence": "HMQEINLIGVTGNDLERSALVKLLDGEIIKLSVGDNLNGGRVVDISAVTLTYLKSGQSITLKLPK", "soluble fraction (log2)": -1.01}
{"sequence": "HMQDRDKNIEEGRQLVLHEMDRLDLVDEPLHDVARQLNMKAVEDMFAAVGAGDLRLGQIIHQLLKQADTN", "soluble fraction (log2)": -0.0442}
{"sequence": "HMSNETLFEFFEKNISQLTPTLVDNINRSLAVHSKKNVKLAIMIAAKSNVRNWNYISAILNRWEKE", "soluble fraction (log2)": -2.21}
{"sequence": "HMSQPALSYAFAKAQGVIVTALGDVAEVARRKGSQPQALAEVRRIAGRPLALREVDDAAFDRLLQDHYARS", "soluble fraction (log2)": -0.243}
{"sequence": "HMALPHEIKQKWLEEIMTMLRSSDSVTINKVYLHFPENKSHWVDEILTDLSNTHMITRQHDFIRLKN", "soluble fraction (log2)": -0.282}
{"sequence": "HMNMFGIQRRNHLLSLLQEKKSITVQEAAVIFEVAEETIRRDFRTMEGQGLIVRTHGGALLADD", "soluble fraction (log2)": -2.19}
{"sequence": "HMINFKVKNVQDVGSRLDKFLVTNIPEFSRSKIQKHIKNGKVMVNGLLKKTGYKLEINDEINILNN", "soluble fraction (log2)": -0.276}
{"sequence": "HMHHGALKQALLDETARILAEEGESALSLRRLASNLGVSRTAPYNHFDNKDALLSAVAEEGFRR", "soluble fraction (log2)": -0.032}
{"sequence": "HMLGARIAALRRQAGMNQGELAKKLGISPSTVGMYEQGRREPSAEMLVRLAEAFSVSTDFLLT", "soluble fraction (log2)": "-4.95e-05"}
{"sequence": "HMSAAMTESVLDGIPGLGATRKAALLAHFGSVRKLRAATSEQVREVPGIGPRLAETILATLHEP", "soluble fraction (log2)": -0.181}
{"sequence": "HMKIDANTFTSIEKQLFVLLSKTPTPMGSIFVALAKEDKEAVWEVIHFLEAENRLIMNEDGTIQL", "soluble fraction (log2)": -1.39}
{"sequence": "HMADNKDMQAAFMEALNGLKEYAKVNGNIVTKEDVNSYFKDMHLDDNKYSMITGYLMANGITIKG", "soluble fraction (log2)": 0.23}
{"sequence": "HMTISDTAYQAFLEQLGVGMVVEHKRFGEGVITGMPKGKIRITFEEGTKSFQARALAESGMLK", "soluble fraction (log2)": -0.59}
{"sequence": "HMATMSIDERILEIRSRAGLTQQEMADRLFVTRQAVSRWERGETVPGIDTLRLIAEAFDVRVDQILEL", "soluble fraction (log2)": -1.69}
{"sequence": "HMELTDRQKQIIEIVKKQQPISGEKIASILGFARATLRPDFSLLTMSGILQAKPKVGYLINEE", "soluble fraction (log2)": -0.152}
{"sequence": "HMDQPVIDVREFGARGDGKQDDAPAIQAAVRLAEQLGGGRVVVPATREFYLLGSTIRIRGHHVTLTGPGAR", "soluble fraction (log2)": 0.0155}
{"sequence": "HMEDPLAAQWKQGRKLFHDDYGYGIISKAFTAGDELVIMVQFENGGEKRFLPKYQAHNLLLVEQ", "soluble fraction (log2)": -0.218}
{"sequence": "HMKAERLLALLTILLSGKRVSARWLSEELEVSERTVYRDVEALSEAGFPVYATTGRDGGFSLIDGF", "soluble fraction (log2)": -2.08}
{"sequence": "HMNYKLESYLKKVDDQLNFIPVSDKADILSELKNTFYERLLNGQTEEEILDEMESPRELALSYMSES", "soluble fraction (log2)": 0.0578}
{"sequence": "HMKKYISEEQAKQAALETAGGGSVVKIKFTTDDGIKVYEIDIINGNYEYEITVHAETGKILDVDKERIH", "soluble fraction (log2)": -1.04}
{"sequence": "HMEKGLQYRRTDRAIMNAFIKLVNQGSFEKLTVQEILDEALVSRNTFYAHYRDIYDLMDALSN", "soluble fraction (log2)": -1.55}
{"sequence": "HMDDLTTASIKQQLKALIDEENKNKPLSDQKLTDALKAQGIDISRRTVAKYREAMNIPGSSKRKRF", "soluble fraction (log2)": 0.0936}
{"sequence": "HMNQIATSTQAIITTLSFLNTSSIFKLPVGDTASRPTGVSPGTLRFNSQEDSAEIYKADDGTGSAGWTEVA", "soluble fraction (log2)": 0.0743}
{"sequence": "HMNNYNDSVQKIINYIADNLNENLSVRKLADKMPMSVSHFNRVFQKYTGDSPYAYVMAMRIKKAKYL", "soluble fraction (log2)": 0.0162}
{"sequence": "HMITTWAGKATTDVYGRVDANPKADAVLVIKTGWTVQVVGSKTAPDGGTWYKLIYNGKTMYANSKFIVK", "soluble fraction (log2)": -1.16}
{"sequence": "HMAQISDEGLLRGLIVEMFEANPAVVEELLGGRDRKKGFVIGQIMKKTKGMANPALLDQLFYEELEKL", "soluble fraction (log2)": -0.867}
{"sequence": "HMASLSEREHDVAVLILQGKTYAEIGQAIFISPRTVEHHVASIRRRLEAKSRSDLIAKLRLTIGGTED", "soluble fraction (log2)": -2.18}
{"sequence": "HMSTMVEIPNVVGMTIKEAKEALGNLGLSISKISGSNEDSAIVTEVSPAPGSSVKRDESITLVGQPK", "soluble fraction (log2)": 0.0366}
{"sequence": "HMQKKEVTVPEVRSKSLKEAAQILSEQNLKYETEPVNVENPDMVVIDQFPKPGGKISEQSVIILYLR", "soluble fraction (log2)": "≥ 0.62"}
{"sequence": "HMEVDWLEVEKVIVSSSYSWMENSPKVKLLQEYIGVTADGIYGLGTWGAHRTHAVDLGFINLSYPIP", "soluble fraction (log2)": -0.127}
{"sequence": "HMPSARELLATNIVRLRKEKGWSQEDLALEAGLHRTFVAHVERHARNISLDNIERLANALQVNVHILLL", "soluble fraction (log2)": -3.79}
{"sequence": "HMLSGNLTADAHVHRGLQALSDGRNEDALVDFTKATEVQADFAEAWNKRATVNYLLGRYDAAVLDIQKTLE", "soluble fraction (log2)": 0.19}
{"sequence": "HMDLEGLSNKELVTLRGQIQDDLNKWATEVGIIDPKNRPDDYNRALQSLEDAKRQRSAIDAKL", "soluble fraction (log2)": 0.0869}
{"sequence": "HMAKIPASTVVEIDGAPVVVAVRVNARARSYRLSIPHSGGPLLTLPPHGKWAEAEAFLLRHHNWLAARLHR", "soluble fraction (log2)": -2.47}
{"sequence": "HMSSKSLAALSPQEYRLLPLVAEGKTNKEIASALALSDKTVKNYLANIFSKLGITRRTQAATLYARAL", "soluble fraction (log2)": -0.167}
{"sequence": "HMVNIAVMTVSDTRTEADDKSGSLLVSKIEGDGHVLADRAIITDDVPRIIAKLKEWIESPQVDVVVT", "soluble fraction (log2)": 0.0468}
{"sequence": "HMKLSDDIIVDTIKEIIEENKNMIEQRKMGAMGPLMGKAMAKFKGKADGQTVSNVIKDEILNIIN", "soluble fraction (log2)": 0.154}
{"sequence": "HMKEKDAYTSEILDTLKNAKLLVVEGTVYPLLTRLKNDGLLNYRWEESTSGPPRKYYGLTDEG", "soluble fraction (log2)": -0.445}
{"sequence": "HMWMQKILGNYIAARRKELGMTQANLAEKIHVTDKAVSRWERGVGLPDIENLEALAKALEVSLVSLMQGKT", "soluble fraction (log2)": -1.59}
{"sequence": "HMSTPERQEVLDILKRQGEMTPLQIAGQISRTSKSVSNILSKLKREGFVANGAKYGSWVSTES", "soluble fraction (log2)": 0.0492}
{"sequence": "HMNVDSLPGEKAVVIKTIDNLRGTGQAVVNGLEWSAKSKDETIIDEGKVVRIVAVEGVKLVVEEE", "soluble fraction (log2)": 0.0762}
{"sequence": "HMRLARPLTPTEERVLRLLASDMSNAKIGEVLGIRLPTVKSHVSHIMQKLGVTSRAKARTAAQQLGI", "soluble fraction (log2)": -0.887}
{"sequence": "HMAIPEVDPAKQGVSATQLAALDALAHRNAGEGRVAGMVNVVIRNGEIVYYKATGPRHIDGGAPLKSTDLF", "soluble fraction (log2)": -0.153}
{"sequence": "HMSISSIDFENLKSDELSDAQITQIYRQAQEQGLSIDELSSLAIARGMSPTEVAKLRSRFNSIP", "soluble fraction (log2)": 0.167}
{"sequence": "HMGVAAPMPGTITDVRVKVGDRVQPRTVVMMLEAMKMENEIFAGRAGVVSQVAVEKGASVNTGDLLISIDP", "soluble fraction (log2)": 0.129}
{"sequence": "HMVIPATPTARRAKIAGLLADRSVRSQGELLTLLADAGIEVTQATLSRDLEALGAVKVRDGRGLVYAVPG", "soluble fraction (log2)": -0.0411}
{"sequence": "HMQKEIKVPDVANMALSEAVEKLQNEGFKVADEQKEVSSDEIEEGKVVKTSPVAGTKKTKGSEITIYISSG", "soluble fraction (log2)": -0.0254}
{"sequence": "HMNRTEYMAALRRALSVLPEEERASALRYYEEYFDDAGPENEEKVIADLGAPEKVAGQILADYRE", "soluble fraction (log2)": 0.00316}
{"sequence": "HMTYSAFITARNKRIAEEYSVLLDSLNISNNVIYRLGSWVVEVNVSDHSRAIDEIYSYERSGRIDKV", "soluble fraction (log2)": -0.498}
{"sequence": "HMFSAASSQISSYVRSVVDKAQTYEQAYEILAKNPLGFKLDALEDELFRIIANAEILGADDDE", "soluble fraction (log2)": -0.887}
{"sequence": "HMVDERMVTYINSLDKGNTPFLNELEKEALANYVPIIRREMQSFLKVLLQIKAPLRILEVGTAVGFSTILM", "soluble fraction (log2)": 0.199}
{"sequence": "HMKNVENIILEQLKKNIYDDLNNASFEEIILIDAEKSIYKGTIKANYIEYNFKINLSTGEILKWKLK", "soluble fraction (log2)": -0.117}
{"sequence": "HMENPLVEVVVPVLNEERILKANIETLHHFLRTQPGFNFRITIADNGSTDKTQAIANDLTNSHAVIRV", "soluble fraction (log2)": -0.12}
{"sequence": "HMETYTVSSKDGYANVRNEATVNSDLIAELKNGTLVTKFKEKGEWYYIEFEREDGTPFDYGYIHKSQLK", "soluble fraction (log2)": 0.181}
{"sequence": "HMEALQKVSINYYDEGAGKQIAEVPLEVGAGDTEIALAVINKYMPAEYNLVSTDYQIRGGYVYVSVTPA", "soluble fraction (log2)": -0.072}
{"sequence": "HMSRSSQMVNFIRLLSQEKKVSVNSIFSSSVQLSDGIIVKINDFYYRVNLSLDQKTYSLVEVS", "soluble fraction (log2)": -0.486}
{"sequence": "HMGMSKQKQSSLVRIIMQEISDANEGRMKMSQIIDAALIKGISDSTVRSVISRLSTTGAIYEPQTGTYEW", "soluble fraction (log2)": -0.643}
{"sequence": "HMLNEIMDTINKYISDKRNNKVAQNILSAALDELNSQIRVGLKDLNPHSIEEFKENVINSPYIEFEQG", "soluble fraction (log2)": 0.046}
{"sequence": "HMLTRRQSEVLDFIRQFAESESMPPTLHEIAKGMGFSSDNAARDHVRALARKGAIDLVGGTSRGIRLR", "soluble fraction (log2)": -0.354}
